Experimental data taken from the supplement of paper PMC10065799, “High-throughput profiling of sequence recognition by tyrosine kinases and SH2 domains using bacterial peptide display” (eLife, 2023).

System: Fer (mouse)
Experiment: phosphorylation enrichment, bacterial display (enrichment ratio); higher = better substrate or ligand; peptides without Tyr show the background
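Note: 11-residue human phosphosite peptides and single-mutation variants displayed on the E. coli surface, counted by deep sequencing, each peptide's frequency after selection divided by its frequency in the unselected input library; frequency after pTyr selection over input frequency; kinase dosed for 20-30% of maximal phosphorylation in three min.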

Sequence | phosphorylation enrichment
DYYDLYGGKKF [PTPN11_Y66_E69K] | 0.421
LGGAMYYLEAE [PKHD1_Y452] | 0.667
LLVVLCKFRCF [PSEN1_Y154_Y154C_YF] | 0.722
ISNATYKEIGL [FLT1_Y199] | 0.471
KLVDVYVNDAF [PGK1_Y161_G158V] | 0.496
VYSSDYFSFVL [USP24_Y2138] | 0.875
ACVARYIFKRL [LPCAT3_Y348_W344C] | 0.492
QYQEKYKQVEQ [HCN4_Y531] | 0.576
LEQQKYTVTID [IKBKB_Y199_V203I] | 0.518
RETSLYKACER [ASB2_Y162_P160S] | 0.762
KTTILYKLKLG [ARF1_Y35] | 0.426
MQMEEYRGWVE [BTNL2_Y91] | 0.449
GNHVSYFQSDG [CACNA1C_Y1757_YF] | 0.369
PDSVDYRKKGY [CTSK_Y121] | 0.657
SISFDYCRVPM [BST2_Y8_T4I_YF] | 0.533
VPLLEYYWDIF [CDAN1_Y712_R714W] | 0.521
KWTVDYLSQVG [TYW5_Y48] | 0.391

Sequence | phosphorylation enrichment
LARDMYDKEFF [MET_Y1230_YF] | 0.464
QFNMQYSSSAA [ERBB2IP_Y981_I979M_YF] | 0.492
QEGPEYWDQQT [HLA-A_Y83_E87Q] | 0.884
SEDSEYFKAFE [CASQ2_Y178_YF] | 0.471
FADIAYIFRHG [PAH_Y166_N167I_YF] | 0.507
CTTTHYNFMCN [TP53_Y234_I232T_YF] | 0.466
SNPAFYVLEGV [INPPL1_Y987_N982S_YF] | 0.427
IHFPPYTDWNQ [ALDH3B2_Y365_YF] | 1.04
GVRFIYTIDGS [DCX_Y105_YF] | 0.669
FSPCDYQPCLA [TNS1_Y798_Y796C_YF] | 0.539
MDNQEYKDAFT [BRDT_Y331_K336T_YF] | 0.539
NNRVFYGNSDR [RS1_Y177] | 0.338
ALTDNYMYLVI [HAGH_Y61] | 3.5
SVTCTYSPALH [TP53_Y126_N131H] | 0.492
EVKEAYMGSVL [ACAT1_Y90_N93S] | 0.398
QSPQLYKQLCI [DARS1_Y253_M256L] | 0.483

System: c-Abl (mouse)
Experiment: as above

Sequence | phosphorylation enrichment
DYYDLYGGKKF [PTPN11_Y66_E69K] | 0.698
LGGAMYYLEAE [PKHD1_Y452] | 1.2
LLVVLCKFRCF [PSEN1_Y154_Y154C_YF] | 1.23
ISNATYKEIGL [FLT1_Y199] | 0.467
KLVDVYVNDAF [PGK1_Y161_G158V] | 0.387
VYSSDYFSFVL [USP24_Y2138] | 2.92
ACVARYIFKRL [LPCAT3_Y348_W344C] | 0.606
QYQEKYKQVEQ [HCN4_Y531] | 0.493
LEQQKYTVTID [IKBKB_Y199_V203I] | 0.696
RETSLYKACER [ASB2_Y162_P160S] | 0.85
KTTILYKLKLG [ARF1_Y35] | 0.719
MQMEEYRGWVE [BTNL2_Y91] | 0.545
GNHVSYFQSDG [CACNA1C_Y1757_YF] | 0.517
PDSVDYRKKGY [CTSK_Y121] | 0.976
SISFDYCRVPM [BST2_Y8_T4I_YF] | 0.785
VPLLEYYWDIF [CDAN1_Y712_R714W] | 0.923
KWTVDYLSQVG [TYW5_Y48] | 0.635

Sequence | phosphorylation enrichment
LARDMYDKEFF [MET_Y1230_YF] | 0.519
QFNMQYSSSAA [ERBB2IP_Y981_I979M_YF] | 0.449
QEGPEYWDQQT [HLA-A_Y83_E87Q] | 1.78
SEDSEYFKAFE [CASQ2_Y178_YF] | 0.974
FADIAYIFRHG [PAH_Y166_N167I_YF] | 0.579
CTTTHYNFMCN [TP53_Y234_I232T_YF] | 0.484
SNPAFYVLEGV [INPPL1_Y987_N982S_YF] | 0.646
IHFPPYTDWNQ [ALDH3B2_Y365_YF] | 0.687
GVRFIYTIDGS [DCX_Y105_YF] | 0.924
FSPCDYQPCLA [TNS1_Y798_Y796C_YF] | 0.996
MDNQEYKDAFT [BRDT_Y331_K336T_YF] | 0.737
NNRVFYGNSDR [RS1_Y177] | 0.499
ALTDNYMYLVI [HAGH_Y61] | 0.813
SVTCTYSPALH [TP53_Y126_N131H] | 0.808
EVKEAYMGSVL [ACAT1_Y90_N93S] | 0.744
QSPQLYKQLCI [DARS1_Y253_M256L] | 0.449

System: AncSZ
Experiment: as above

Sequence | phosphorylation enrichment
DYYDLYGGKKF [PTPN11_Y66_E69K] | 1.31
LGGAMYYLEAE [PKHD1_Y452] | 1.42
LLVVLCKFRCF [PSEN1_Y154_Y154C_YF] | 1.4
ISNATYKEIGL [FLT1_Y199] | 0.462
KLVDVYVNDAF [PGK1_Y161_G158V] | 0.895
VYSSDYFSFVL [USP24_Y2138] | 2.21
ACVARYIFKRL [LPCAT3_Y348_W344C] | 0.979
QYQEKYKQVEQ [HCN4_Y531] | 1.44
LEQQKYTVTID [IKBKB_Y199_V203I] | 1.27
RETSLYKACER [ASB2_Y162_P160S] | 1
KTTILYKLKLG [ARF1_Y35] | 1.01
MQMEEYRGWVE [BTNL2_Y91] | 1.22
GNHVSYFQSDG [CACNA1C_Y1757_YF] | 0.656
PDSVDYRKKGY [CTSK_Y121] | 1.07
SISFDYCRVPM [BST2_Y8_T4I_YF] | 1.65
VPLLEYYWDIF [CDAN1_Y712_R714W] | 1.43
KWTVDYLSQVG [TYW5_Y48] | 0.953

Sequence | phosphorylation enrichment
LARDMYDKEFF [MET_Y1230_YF] | 0.685
QFNMQYSSSAA [ERBB2IP_Y981_I979M_YF] | 0.937
QEGPEYWDQQT [HLA-A_Y83_E87Q] | 2.09
SEDSEYFKAFE [CASQ2_Y178_YF] | 1.46
FADIAYIFRHG [PAH_Y166_N167I_YF] | 0.908
CTTTHYNFMCN [TP53_Y234_I232T_YF] | 0.758
SNPAFYVLEGV [INPPL1_Y987_N982S_YF] | 0.818
IHFPPYTDWNQ [ALDH3B2_Y365_YF] | 1.01
GVRFIYTIDGS [DCX_Y105_YF] | 1.41
FSPCDYQPCLA [TNS1_Y798_Y796C_YF] | 1.84
MDNQEYKDAFT [BRDT_Y331_K336T_YF] | 1.14
NNRVFYGNSDR [RS1_Y177] | 0.437
ALTDNYMYLVI [HAGH_Y61] | 1.43
SVTCTYSPALH [TP53_Y126_N131H] | 1.28
EVKEAYMGSVL [ACAT1_Y90_N93S] | 0.841
QSPQLYKQLCI [DARS1_Y253_M256L] | 1.02

Molecular target: EPHB1 (UniProt P54762)
Experiment: as above

EPHB1, sequence (P54762 whole entry, looked up): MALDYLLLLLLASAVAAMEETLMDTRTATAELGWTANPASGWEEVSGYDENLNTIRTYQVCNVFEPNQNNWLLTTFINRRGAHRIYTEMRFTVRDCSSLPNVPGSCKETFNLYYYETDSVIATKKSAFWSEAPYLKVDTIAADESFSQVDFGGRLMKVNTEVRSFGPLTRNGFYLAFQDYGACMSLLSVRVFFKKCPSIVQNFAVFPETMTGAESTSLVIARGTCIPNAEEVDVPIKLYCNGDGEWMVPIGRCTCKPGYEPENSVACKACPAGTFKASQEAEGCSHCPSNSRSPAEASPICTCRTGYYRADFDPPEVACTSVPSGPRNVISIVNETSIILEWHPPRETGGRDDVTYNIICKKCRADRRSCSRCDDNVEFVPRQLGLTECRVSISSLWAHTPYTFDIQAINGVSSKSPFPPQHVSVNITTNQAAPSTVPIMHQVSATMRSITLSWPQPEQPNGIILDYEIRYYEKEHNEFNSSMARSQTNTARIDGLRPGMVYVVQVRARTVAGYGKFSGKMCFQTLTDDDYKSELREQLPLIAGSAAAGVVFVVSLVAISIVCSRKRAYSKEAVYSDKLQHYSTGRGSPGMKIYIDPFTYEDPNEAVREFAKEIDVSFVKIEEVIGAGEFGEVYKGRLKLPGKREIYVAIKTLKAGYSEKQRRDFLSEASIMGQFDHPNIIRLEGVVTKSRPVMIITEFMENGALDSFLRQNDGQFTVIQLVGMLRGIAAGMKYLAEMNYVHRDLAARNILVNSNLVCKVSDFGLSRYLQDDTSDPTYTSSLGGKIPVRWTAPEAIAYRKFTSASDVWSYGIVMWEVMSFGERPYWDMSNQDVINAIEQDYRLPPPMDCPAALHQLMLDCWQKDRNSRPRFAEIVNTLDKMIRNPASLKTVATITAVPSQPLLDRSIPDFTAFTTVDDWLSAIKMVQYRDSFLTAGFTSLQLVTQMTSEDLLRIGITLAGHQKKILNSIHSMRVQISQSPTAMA

Sequence | phosphorylation enrichment
DYYDLYGGKKF [PTPN11_Y66_E69K] | 1.89
LGGAMYYLEAE [PKHD1_Y452] | 1.62
LLVVLCKFRCF [PSEN1_Y154_Y154C_YF] | 0.619
ISNATYKEIGL [FLT1_Y199] | 0.352
KLVDVYVNDAF [PGK1_Y161_G158V] | 0.575
VYSSDYFSFVL [USP24_Y2138] | 3.74
ACVARYIFKRL [LPCAT3_Y348_W344C] | 0.407
QYQEKYKQVEQ [HCN4_Y531] | 0.908
LEQQKYTVTID [IKBKB_Y199_V203I] | 0.932
RETSLYKACER [ASB2_Y162_P160S] | 0.59
KTTILYKLKLG [ARF1_Y35] | 0.41
MQMEEYRGWVE [BTNL2_Y91] | 0.503
GNHVSYFQSDG [CACNA1C_Y1757_YF] | 0.373
PDSVDYRKKGY [CTSK_Y121] | 0.599
SISFDYCRVPM [BST2_Y8_T4I_YF] | 2.13
VPLLEYYWDIF [CDAN1_Y712_R714W] | 2.27
KWTVDYLSQVG [TYW5_Y48] | 0.602

Sequence | phosphorylation enrichment
LARDMYDKEFF [MET_Y1230_YF] | 0.515
QFNMQYSSSAA [ERBB2IP_Y981_I979M_YF] | 0.592
QEGPEYWDQQT [HLA-A_Y83_E87Q] | 1.31
SEDSEYFKAFE [CASQ2_Y178_YF] | 0.714
FADIAYIFRHG [PAH_Y166_N167I_YF] | 0.715
CTTTHYNFMCN [TP53_Y234_I232T_YF] | 0.397
SNPAFYVLEGV [INPPL1_Y987_N982S_YF] | 0.469
IHFPPYTDWNQ [ALDH3B2_Y365_YF] | 0.695
GVRFIYTIDGS [DCX_Y105_YF] | 0.628
FSPCDYQPCLA [TNS1_Y798_Y796C_YF] | 11.6
MDNQEYKDAFT [BRDT_Y331_K336T_YF] | 0.56
NNRVFYGNSDR [RS1_Y177] | 0.284
ALTDNYMYLVI [HAGH_Y61] | 9.55
SVTCTYSPALH [TP53_Y126_N131H] | 0.71
EVKEAYMGSVL [ACAT1_Y90_N93S] | 0.485
QSPQLYKQLCI [DARS1_Y253_M256L] | 0.511
